Among the data in patent US20120284877 are activity (% blue plants) values, retold here.

Substitutions are numbered along the chain they refer to.

Assay in all cases: cell_activity
What all share (conditions): A. thaliana GUS recombination

Series [1] has as its target T1, NLS-I-SceI C term mod #2-AlcR(1-60) (VC-SAH129-1, SAH127-1) (Saccharomyces cerevisiae / Aspergillus nidulans) (UniProt P03882).
T1 sequence: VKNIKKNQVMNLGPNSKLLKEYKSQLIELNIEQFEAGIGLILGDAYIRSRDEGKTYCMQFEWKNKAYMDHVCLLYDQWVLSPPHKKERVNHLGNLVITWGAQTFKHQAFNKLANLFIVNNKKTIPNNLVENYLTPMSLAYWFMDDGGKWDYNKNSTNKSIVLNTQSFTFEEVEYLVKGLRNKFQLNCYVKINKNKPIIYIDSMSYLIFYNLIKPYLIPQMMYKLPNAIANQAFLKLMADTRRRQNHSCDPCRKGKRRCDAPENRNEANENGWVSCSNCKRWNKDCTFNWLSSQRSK

In series [2] the target is T2, NLS-I-SceI-AlcR(1-60) (VC-SAH48-8, VC-SAH91-1) (Saccharomyces cerevisiae / Aspergillus nidulans) (UniProt P03882).
T2 sequence: T1 sequence with A227T, A229S, N230S, Q231E, A232T

Series [3] addresses T3, NLS-I-SceI C term mod #1-AlcR(1-60) (VC-SAH128-3, SAH126-1) (Saccharomyces cerevisiae / Aspergillus nidulans) (UniProt P03882).
T3 sequence: T1 sequence with A227T, A229K, N230S, Q231E, A232T

In the case of “AGCGGCCGCCTAGGGATCCGACAGGTTACGGGGCGGCGACCTCGCGGGTTTTCGCTATTTATGAAAATTTTCCGGTTTAAGGCGTTTCCGTTCTTCTTCGTCATAACTTAATGTTTTTATTTAAAATACCCTCTGAAAAGAAAGGAAACGACAGGTGCATTACCCTGTTATCCCTAGCGGATCCGCACGTTATCCCTAGCGGATCCGCACGTTATCCCTAT (double strand) [combined target site VC-SAH55-22 (#55)]”, the activity (% blue plants) in series [1] was 76; in series [2] it was 49; in series [3], 100.
